The target of one data set is T1, USP C472A/H475L (Drosophila melanogaster, UniProt P20153 SEQ:1-508, C472A/H475L).
T1 sequence: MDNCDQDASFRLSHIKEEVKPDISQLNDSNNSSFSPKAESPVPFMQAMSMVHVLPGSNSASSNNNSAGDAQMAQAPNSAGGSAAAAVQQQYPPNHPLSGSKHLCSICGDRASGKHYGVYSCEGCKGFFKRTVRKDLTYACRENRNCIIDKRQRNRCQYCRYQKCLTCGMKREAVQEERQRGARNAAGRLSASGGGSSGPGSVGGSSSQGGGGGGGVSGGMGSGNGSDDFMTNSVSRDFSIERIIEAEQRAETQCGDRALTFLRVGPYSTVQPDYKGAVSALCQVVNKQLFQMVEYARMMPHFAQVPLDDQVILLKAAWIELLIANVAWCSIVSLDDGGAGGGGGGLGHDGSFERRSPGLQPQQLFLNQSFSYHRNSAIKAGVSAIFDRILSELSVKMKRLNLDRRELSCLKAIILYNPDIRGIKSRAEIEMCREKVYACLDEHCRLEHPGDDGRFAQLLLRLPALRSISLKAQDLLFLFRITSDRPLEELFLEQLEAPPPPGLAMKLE
In words: competition; 100x nonself competitor, specificity control. Conditions: tags: His-tag, pET32EK (Novagen); chain copies: monomer and homodimer (stated). The method, then:
(§1) Control competitions with self and nonself unlabelled excess probes confirmed the specificity of binding. […] (B) The homodimer-enriched fraction of each receptor preparation was then analyzed for binding to […] methyl epoxyfarnesoate, using an intrinsic fluorescence assay method that tracks ligand binding (by suppression in receptor fluorescence) Jones et al., (2000) Insect Biochem. Mol. Biol. 30, 671-679; Jones et al. (2001), Insect Biochem. Mol. Biol. 32, 33-49. […] Arrows show time of addition of methyl epoxyfarnesoate or EtOH carrier.
(§2) Nuclear extracts were isolated from Sf9 cells as previously described Jones et al. (2001) Insect Biochem. Mol. Biol. 32, 33-49; Jones et al (1998) Biochem. J. 335, 79-84; 79-84; Jones et al. (2000) Biochem. J. 346, 233-240. For the DR12 probe, the double stranded DR12 oligonucleotide (sequence as shown above) was 5′ end-labelled with ³²P by T4 polynucleotide kinase (New England Biolabs Inc.), and then purified from a 20% native polyacrylamide gel. The same double stranded DR12 oligonucleotide was used in 100-fold excess as a self competitor. For the 4DR12Core probe, the 4DR12Core sequence was liberated from the vector as a 148-bp ClaI/HindIII fragment, and was 5′ end-labelled with ³²P and purified. The same, unlabelled fragment was used at 100-fold excess as a self competitor. […]

For data set [1], the target named is T2, USP (ultraspiracle) wild-type (Drosophila melanogaster, UniProt P20153 SEQ:1-508).
T2 sequence: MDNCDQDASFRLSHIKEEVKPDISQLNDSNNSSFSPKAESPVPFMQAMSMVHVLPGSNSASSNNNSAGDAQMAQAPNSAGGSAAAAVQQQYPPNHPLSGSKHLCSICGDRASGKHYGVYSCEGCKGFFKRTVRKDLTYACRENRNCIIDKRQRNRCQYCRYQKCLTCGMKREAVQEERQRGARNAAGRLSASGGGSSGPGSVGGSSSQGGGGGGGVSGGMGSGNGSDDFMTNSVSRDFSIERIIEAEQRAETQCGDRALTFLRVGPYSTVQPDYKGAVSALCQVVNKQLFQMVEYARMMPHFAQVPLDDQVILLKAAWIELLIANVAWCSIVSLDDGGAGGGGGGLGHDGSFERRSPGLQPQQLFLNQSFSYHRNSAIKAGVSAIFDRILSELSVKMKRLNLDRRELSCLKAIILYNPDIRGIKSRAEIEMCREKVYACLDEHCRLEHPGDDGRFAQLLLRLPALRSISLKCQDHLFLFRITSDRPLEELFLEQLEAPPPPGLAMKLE
Described as above. Conditions: tags: His-tag, pET32EK (Novagen); chain copies: monomer and homodimer (stated). The method, then: as §1, §2

Data set [2] deals with the molecule itself. The data set can be described thus: dimerisation, gel mobility shift on DR12 probe (not shown).
Data set [3] concerns the molecule itself. In words: homodimerisation, gel mobility shift on 4DR12 probe; bands assigned with Superdex 200 fractions. The source says:
Arrows show time of addition of methyl epoxyfarnesoate or EtOH carrier.
Nuclear extracts were isolated from Sf9 cells as previously described Jones et al. (2001) Insect Biochem. Mol. Biol. 32, 33-49; Jones et al (1998) Biochem. J. 335, 79-84; 79-84; Jones et al. (2000) Biochem. J. 346, 233-240. For the DR12 probe, the double stranded DR12 oligonucleotide (sequence as shown above) was 5′ end-labelled with ³²P by T4 polynucleotide kinase (New England Biolabs Inc.), and then purified from a 20% native polyacrylamide gel. The same double stranded DR12 oligonucleotide was used in 100-fold excess as a self competitor. For the 4DR12Core probe, the 4DR12Core sequence was liberated from the vector as a 148-bp ClaI/HindIII fragment, and was 5′ end-labelled with ³²P and purified. The same, unlabelled fragment was used at 100-fold excess as a self competitor. As a negative control for specificity in gel shifts, the 36 bp BglII/KpnI polylinker region fragment of the pGL3 vector was liberated and recovered from low melting point agarose gels and used as a 100 nonself competitor (sequence: […], SEQ ID NO: 17). […]

B1: pGL3 polylinker (nonself) (dsDNA)
DNA 1: GGTACCGAGCTCTTACGCGTGCTAGCCCGGGCTCGA
DNA 2: TCGAGCCCGGGCTAGCACGCGTAAGAGCTCGGTACC
Consider B1, for which the binding result (in the data set with USP C472A/H475L; in data set [1]) was “no binding” in each case.

B2: His-tagged wild-type Drosophila melanogaster USP (bacterially overexpressed) (receptor)
chain: MDNCDQDASFRLSHIKEEVKPDISQLNDSNNSSFSPKAESPVPFMQAMSMVHVLPGSNSASSNNNSAGDAQMAQAPNSAGGSAAAAVQQQYPPNHPLSGSKHLCSICGDRASGKHYGVYSCEGCKGFFKRTVRKDLTYACRENRNCIIDKRQRNRCQYCRYQKCLTCGMKREAVQEERQRGARNAAGRLSASGGGSSGPGSVGGSSSQGGGGGGGVSGGMGSGNGSDDFMTNSVSRDFSIERIIEAEQRAETQCGDRALTFLRVGPYSTVQPDYKGAVSALCQVVNKQLFQMVEYARMMPHFAQVPLDDQVILLKAAWIELLIANVAWCSIVSLDDGGAGGGGGGLGHDGSFERRSPGLQPQQLFLNQSFSYHRNSAIKAGVSAIFDRILSELSVKMKRLNLDRRELSCLKAIILYNPDIRGIKSRAEIEMCREKVYACLDEHCRLEHPGDDGRFAQLLLRLPALRSISLKCQDHLFLFRITSDRPLEELFLEQLEAPPPPGLAMKLE
notes: Full-length dUSP cloned into pET32EK, purified on nickel resin and Superdex 200; also called wild-type dUSP; His-dUSP fusion protein; not shown: His tag / fusion part from the vector pET32EK
In the case of B2, the binding result in data set [2] was “binds”.

B3: His-tagged mutant dUSP Cys472Ala/His475Leu (bacterially overexpressed) (receptor)
chain: MDNCDQDASFRLSHIKEEVKPDISQLNDSNNSSFSPKAESPVPFMQAMSMVHVLPGSNSASSNNNSAGDAQMAQAPNSAGGSAAAAVQQQYPPNHPLSGSKHLCSICGDRASGKHYGVYSCEGCKGFFKRTVRKDLTYACRENRNCIIDKRQRNRCQYCRYQKCLTCGMKREAVQEERQRGARNAAGRLSASGGGSSGPGSVGGSSSQGGGGGGGVSGGMGSGNGSDDFMTNSVSRDFSIERIIEAEQRAETQCGDRALTFLRVGPYSTVQPDYKGAVSALCQVVNKQLFQMVEYARMMPHFAQVPLDDQVILLKAAWIELLIANVAWCSIVSLDDGGAGGGGGGLGHDGSFERRSPGLQPQQLFLNQSFSYHRNSAIKAGVSAIFDRILSELSVKMKRLNLDRRELSCLKAIILYNPDIRGIKSRAEIEMCREKVYACLDEHCRLEHPGDDGRFAQLLLRLPALRSISLKAQDLLFLFRITSDRPLEELFLEQLEAPPPPGLAMKLE
notes: also called C472A/H475L; double mutant dUSP; not shown: His tag / fusion part from the vector pET32EK
As to B3, in data set [3], the binding result is “binds”.

B4: P498W/P499W mutant USP (receptor, not shown: small tags and cut ends)
chain: MDNCDQDASFRLSHIKEEVKPDISQLNDSNNSSFSPKAESPVPFMQAMSMVHVLPGSNSASSNNNSAGDAQMAQAPNSAGGSAAAAVQQQYPPNHPLSGSKHLCSICGDRASGKHYGVYSCEGCKGFFKRTVRKDLTYACRENRNCIIDKRQRNRCQYCRYQKCLTCGMKREAVQEERQRGARNAAGRLSASGGGSSGPGSVGGSSSQGGGGGGGVSGGMGSGNGSDDFMTNSVSRDFSIERIIEAEQRAETQCGDRALTFLRVGPYSTVQPDYKGAVSALCQVVNKQLFQMVEYARMMPHFAQVPLDDQVILLKAAWIELLIANVAWCSIVSLDDGGAGGGGGGLGHDGSFERRSPGLQPQQLFLNQSFSYHRNSAIKAGVSAIFDRILSELSVKMKRLNLDRRELSCLKAIILYNPDIRGIKSRAEIEMCREKVYACLDEHCRLEHPGDDGRFAQLLLRLPALRSISLKCQDHLFLFRITSDRPLEELFLEQLEAWWPPGLAMKLE
notes: Two prolines at the end of alpha-helix 12 replaced by tryptophan
On to B4, for which, in data set [2], the binding result is reported as “binds”.
